From patent US20040208887A1

B1: Fab clone 6a:5 (Fab, V domains shown)
VH: EVQLLESGPGLVKPSQTLSLTCAISGDNVSRKSAAWNWIRQSPSRGLEWLGRTYHMSKWYSVYATSLKSRININVDTSRNQFALQLRSVTPEDTAVYYCAREGPEWAVGGTYGMDVWGQGTTVTVSS
VL: AELTQSPDTLSLSPGERATLSCRASQSVNNNYLAWYQQKPGQAPRLLIYGASSRATGIPDRFSGSGSETDFTLTISRLEPEDFAVYYCQQYDSSRTFGQGTKVEIK
B2: Fab clone 4:6 (Fab, V domains shown)
VH: VQLLEQSGAEVKKPGASVKVSCKASGYTFTKYYLHWVRQAPGQGLEWMGFINPSGGSTSSAQKFQGRISMTRDTSTTTVYMEVNSVTSEDTAVYYCARVGRLGVGATGAFDLWGQGTMVTVSS
VL: AELTQSPSSLSASVGDRVTITCQASQDINYSLNWYQQKPGKPPKLLIYYASHSDTGVPSRFSGGGSGTRFTLTIYSLQPEDIATYYCQHFDHVPRYTFGPGTKVDLK

Biological target: recombinant E2 (genotype 1a) (hepatitis C virus genotype 1a) (UniProt P26664)
Assay: ELISA, E2 coated as negative control antigen; crude periplasmic Fab

Chain of recombinant E2 (genotype 1a) (hepatitis C virus genotype 1a) (P26664 384-715 limits assumed): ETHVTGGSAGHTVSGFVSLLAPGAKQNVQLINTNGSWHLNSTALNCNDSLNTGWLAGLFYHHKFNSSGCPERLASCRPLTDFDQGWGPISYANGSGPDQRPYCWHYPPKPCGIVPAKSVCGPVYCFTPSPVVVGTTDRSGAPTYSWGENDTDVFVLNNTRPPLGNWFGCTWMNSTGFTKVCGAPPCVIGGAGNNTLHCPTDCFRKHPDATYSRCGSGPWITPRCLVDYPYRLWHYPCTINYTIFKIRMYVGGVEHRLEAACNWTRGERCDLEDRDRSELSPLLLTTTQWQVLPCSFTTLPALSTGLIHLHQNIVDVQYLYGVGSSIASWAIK

Row | Binder | OD405 nm [OD405 nm]
1 | B1 | 0.03
2 | B2 | 0.08
